One data set has as its system ATG 1240. The experiment in a line: Mimicry of tissue attenuation using long pass filters, transfected HEK293T cells. It counts as cell-based, click beetle. Conditions: HEK293T cells expressing ATG 1240. Here is the method: A transfection complex was prepared by diluting ATG 1240 DNA or Luc2 DNA (pF4Ag-Luc2) to 100 ng/μL, and then 2× serial dilutions prepared in 50 ng/μL pGEM carrier DNA. 40 μL of the diluted DNA was the mixed with 160 μL phenol red free OptiMEM and 16 μL of FuGENE® HD and incubated for 20 min. 5 μL of each transfection complex was added to wells of a 96-well black assay plates and then 100 μL of diluted HEK293T cells (200,000/mL in DMEM+10% FBS) was added. The cells were grown overnight at 37° C. with CO2.
To assay the cells, 4 mM D-luciferin, 2 mM PBI-4813 and 2 mM PBI-4739 substrate solutions were prepared in DMEM+10% FBS. 100 μL of the D-luciferin solution was added to cells expressing Luc2 and ATG 1240, and 100 μL of PBI-4813 or PBI-4739 solution was added to ATG 1240 expressing cells. Samples were incubated for 10 min at 37° C., and luminescence detected on GloMax® Discover (heated to 37° C.) with no filter, 610 nm Long Pass (LP) filter, 665 nm LP filter, 695 nm LP filter, 720 nm LP filter or 760 nm LP filter.

The nature of data set [1]: Luminescence of ATG 1230 and ATG 1240 cell lysates, GloMax Discover with red-sensitive PMT. The data set is classed as biochemical. Conditions: for Luminescence, PBI-4739 / Luminescence, PBI 4813: cell lysate; for Luminescence, PBI-4739: 20 μM PBI-4739; for Luminescence, PBI 4813: 20 μM PBI-4813, GloMax Discover red-sensitive PMT; for PBI-4813/PBI-4739: ratio of luminescence with the two substrates. Here is the method: (§1) 2. Cell lysates were prepared from cells containing the variants listed in Table 3 by diluting 100 μL of induced culture with 100 μL of lysis buffer (0.3×PLB, 0.006U RQ DNAse1) using a Tecan liquid handling robot. 50 μL of each cell lysate was assayed with either PBI-4813 or PBI-4739 (20 μM in Bright-Glo™ assay buffer containing 1 mM ATP), and luminescence detected on an ImageQuant CCD imager. Luminescence of the variants was normalized to CBR luciferase (FIG. 8).
Variant clones identified as ATG 1230 (CBR+389F+444R+251S) and ATG 1240 (CBR+334S+351R) were further evaluated for their luminescence, spectral property, Km and live cell kinetics with either PBI-4813 or PBI-4739. These variants were cloned and expressed as described in Example 2 except the template was pF4Ag-CBR, i.e., no HALOTAG®.
A. Luminescence with PBI-4813 and PBI-4739. Cell lysates of these variant clones were prepared and assayed for luminescence as described in Example 6. Luminescence was detected on a GloMax® Discover equipped with a red-sensitive photomultiplier tube (PMT) and compared to CBR luciferase (Table 5 and FIG. 10).

The nature of data set [2]: Substrate inhibition of luciferase activity at high substrate concentration. It counts as biochemical. The note with it: PBI-4813 at concentrations greater than ten times the Km.
A short description of data set [3]: Combinations of H-acceptor and library screen mutants, lysate luminescence. The data set is classed as biochemical. Conditions: for Luminescence normalized to CBR luciferase, D-LH2 (luciferin): substrate D-LH2 (luciferin); for Luminescence normalized to CBR luciferase, PBI-4739: substrate PBI-4739; for Luminescence normalized to CBR luciferase, PBI-4813: substrate PBI-4813. The procedure:
as §1
Combinations of the Hydrogen acceptor mutants identified in Example 6 were designed and prepared using the QuikChange Multi Site-Directed Mutagenesis Kit (Agilent). Variants were cloned and expressed as described in Example 2 except the template was pF4Ag-CBR. Variants were screened as described in Example 6. Luminescence of the variants using luciferin (“D-LH2”), PBI-4813, and PBI-4739 was normalized to CBR luciferase (Table 4 and FIG. 9).

Data set [4] is described as follows: Km titration of ATG 1240 compared with CBR in live HEK293T cells. It counts as cell-based. The note with it: 60 min at 37° C. The procedure:
HEK293T cells were plated at 15,000 cells/well into wells of 96-well white assay plates and grown overnight. A transfection mixture was made containing 6.6 μg of CBR or ATG-1240 DNA and 20 μL FuGENE® HD in a total volume of 310 μL OptiMEM. The mixture was incubated at room temperature for 10 min. The cells were then transfected, in triplicate, with 5 μL of transfection complex and grown overnight.
The transfected cells were then assayed. 2× serial dilutions of PBI-4813 and PBI-4739 starting at 2 mM in CO2 independent media+0.5% FBS were prepared. The growth media from the transfected cells was removed and replaced with one of the serial diluted substrate containing media. The cells were incubated 60 min at 37° C., and luminescence detected on a modified GloMax® Discover luminometer containing a red shifted PMT (see FIG. 23A and FIG. 23B). The Km of ATG 1240 was about 5 times higher than the Km of CBR with PBI-4813. The Km of ATG 1240 was about 3 times higher than the Km of CBR with PBI-4739.

Data set [5] in a line: Secondary library screen using ATG 1240 as template, lysate luminescence. The data set is classed as biochemical. The note with it: ATG 1240 template (WT = ATG-1240). Here is the method: A random clone library was prepared as described in Example 2 using ATG 1240 as a template. The variants were then cloned into pF4Ag (no HT7). The library was screened as follows (50 plates total):
i. Primary Screen. Cells were grown as described in Example 2. Cell lysates were prepared by diluting 100 μL of induced culture with 100 μL of lysis buffer (0.3×PLB+0.006U RQDNAse1) using a Tecan liquid handling robot. 50 μL of each cell lysate was then assayed with either PBI-4813 or PBI-4739. (20 μM substrate in Bright-Glo™ assay buffer containing 1 mM ATP). Luminescence was detected on a GloMax® Discover.
ii. Secondary Screen. Cells from each hit in the primary screen were streaked onto new plates and grown overnight. Colonies were picked in quadruplicate and cultures were grown as described in Example 2. 50 μL of each cell lysate was assayed with 50 μL of BrightGlo™ assay buffer containing 1 mM ATP and 30 μM PBI-4813 or 50 μM PBI-4739. Luminescence was detected on a GloMax® Discover Multimode Detection System (Table 6). The variants in this library were identified as having on average between 2-3 mutations per gene.

Data set [6] in a line: Recombination of ATG 1240 library mutants, lysate luminescence. The data set is classed as biochemical. An excerpt: 2. […] Luminescence of the variants was normalized to CBR luciferase (FIG. 8). Combinations of the ATG 1240 library mutants identified in Example 9 were designed and prepared using DNA shuffling ([…] USA 91:10747-10751). Briefly, a library of mutant genes was created via DNA shuffling. The mutant genes were then cloned into the pF4Ag vector and screened as described in Example 6. Luminescence was detected on a GloMax® Discover Multimode Detection System and normalized to ATG-1240 luciferase (Table 8 and FIG. 15).

Setting [7] is: listed as 251S + 389F + 444R (343 template).

Substitutions are numbered along the chain they refer to. Names and notes keep the numbering of the source. Values joined by “and” are separate entries in the source; they are usually repeats but may differ in a detail not shown here. Equal entries are not always repeated.

With `O=C(O)[C@H]1CSC(c2nc3ccc(O)cc3s2)=N1` [D-luciferin, D-(−)-2-(6′-hydroxy-2′-benzoth-iazolyl)-Δ^2-thiazolin-4-carboxylic acid], the “luminescence of ATG 1240 when light is attenuated with long pass filters” value in the data set with ATG 1240 (37° C.) is “may be brighter than with PBI-4739”. The “luminescence of ATG 1240 at the greatest light attenuation” value in the data set on ATG 1240 (long pass filters) is “comparable”.

B1: CBR: click beetle red luciferase polypeptide of SEQ ID NO: 1 (protein)
chain: MVKREKNVIYGPEPLHPLEDLTAGEMLFRALRKHSHLPQALVDVVGDESLSYKEFFEATVLLAQSLHNCGYKMNDVVSICAENNTRFFIPVIAAWYIGMIVAPVNESYIPDELCKVMGISKPQIVFTTKNILNKVLEVQSRTNFIKRIIILDTVENIHGCESLPNFISRYSDGNIANFKPLHFDPVEQVAAILCSSGTTGLPKGVMQTHQNICVRLIHALDPRYGTQLIPGVTVLVYLPFFHAFGFHITLGYFMVGLRVIMFRRFDQEAFLKAIQDYEVRSVINVPSVILFLSKSPLVDKYDLSSLRELCCGAAPLAKEVAEVAAKRLNLPGIRCGFGLTESTSAIIQTLGDEFKSGSLGRVTPLMAAKIADRETGKALGPNQVGELCIKGPMVSKGYVNNVEATKEAIDDDGWLHSGDFGYYDEDEHFYVVDRYKELIKYKGSQVAPAELEEILLKNPCIRDVAVVGIPDLEAGELPSAFVVKQPGTEITAKEVYDYLAERVSHTKYLRGGVRFVDSIPRNVTGKITRKELLKQLLVKAGGV
For B1, in data set [1], the “Luminescence, PBI-4739” value is 17,431; the “Luminescence, PBI 4813” value is 98,556; the PBI-4813/PBI-4739 is given as 5.7. Further, the “inhibition of luciferase activity by PBI-4813” value (from here on “inhibition”) in data set [2] is listed as “inhibits the activity”. In addition, in data set [3], the “Luminescence normalized to CBR luciferase, D-LH2 (luciferin)” value came out at 1.0; the “Luminescence normalized to CBR luciferase, PBI-4739” value came out at 1.0; the “Luminescence normalized to CBR luciferase, PBI-4813” value stood at 1.0.

B2: ATG 1240: CBR variant R334S and G351R (SEQ ID NO: 2) (protein)
chain: B1 chain with R334S, G351R
With B2, in data set [4], the “Km higher than the Km of CBR with PBI-4739” value is listed as “about 3 times” and the “Km higher than the Km of CBR with PBI-4813” value is listed as “about 5 times”. Also, the “Luminescence, secondary screen, PBI-4813” value in data set [5] (30 μM PBI-4813, 1 mM ATP) is 1.2 and 1.01 and 1.0 and 0.9 and 1.02 and 0.97. Also, the “Luminescence, secondary screen, PBI-4739” value in data set [5] (50 μM PBI-4739, 1 mM ATP) was 1.1 and 1.05 and 1.0 and 0.99 and 0.97 and 0.9. Besides, in data set [1], the “Luminescence, PBI-4739” value is reported as 37,169; the “Luminescence, PBI 4813” value is on record as 71,299; the PBI-4813/PBI-4739 came out at 1.9. The “inhibition” value in data set [2] is recorded as “does not show this inhibition”.

B3: ATG 1230: CBR variant I389F, S444R, G251S (SEQ ID NO: 3) (protein)
chain: B1 chain with G251S, I389F, S444R
Consider B3, for which, in data set [1], the “Luminescence, PBI-4739” value is reported as 26,595; the “Luminescence, PBI 4813” value is reported as 310,342; the PBI-4813/PBI-4739 turned out to be 11.7. Also, the “inhibition” value in data set [2] is listed as “inhibits the activity”. For the same molecule, in data set [3] (setting [7]), the “Luminescence normalized to CBR luciferase, D-LH2 (luciferin)” value was 0.6 and 0.5; the “Luminescence normalized to CBR luciferase, PBI-4739” value was 1.6 and 1.4; the “Luminescence normalized to CBR luciferase, PBI-4813” value was 3.4 and 3.2.

B4: 5G5: ATG 1240 variant S51N + S444R (SEQ ID NO: 4) (protein)
chain: B1 chain with S51N, R334S, G351R, S444R
Turning to B4, the “Luminescence normalized to ATG-1240 luciferase, D-LH2” value in data set [6] (substrate D-LH2) is reported as 2.8. The “Luminescence normalized to ATG-1240 luciferase, PBI-4739” value in data set [6] (substrate PBI-4739) was 3.8. For the same molecule, in data set [6] (substrate PBI-4813), the “Luminescence normalized to ATG-1240 luciferase, PBI-4813” value is on record as 4.0.

The values are drawn from patent US12460245B2, “Luciferase sequences utilizing infrared-emitting substrates to produce enhanced luminescence” (Promega Corporation, priority 2014, dated 2025).
